Experimental findings from US20180155451A1 (published 2018) are described below.

One test has as its target T1, FcγRIIb (human, UniProt P31994 43-217).
T1 construct: extracellular domain; for crystallography expressed with Kifunesine and trimmed with Endo F1; also called FcgRIIb; FcgR2b; not shown: His tag attached to the C terminus
T1 sequence (looked up): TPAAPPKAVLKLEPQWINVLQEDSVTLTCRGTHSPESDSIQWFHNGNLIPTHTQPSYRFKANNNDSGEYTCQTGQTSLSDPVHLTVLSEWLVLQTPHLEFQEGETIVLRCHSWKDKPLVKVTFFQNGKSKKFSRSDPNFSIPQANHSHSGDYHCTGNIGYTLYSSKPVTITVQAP
Description: SPR (Biacore), relative binding. An excerpt: The constructed expression vectors were each combined with GpH7-A5 and GpL16-k0 to express heterodimerized antibodies, or they were combined with GpL16-k0 alone but not with other H chains to express homodimerized antibodies. These antibodies were expressed and purified according to the method described in Reference Example 1. The resulting purified antibodies are the following: the heterodimerized antibodies GpH7-A5/GpH7-B12/GpL16-k0, GpH7-A5/GpH7-B13/GpL16-k0, GpH7-A5/GpH7-B14/GpL16-k0, and GpH7-A5/GpH7-B15/GpL16-k0; and homodimerized antibodies GpH7-B12/GpL16-k0, GpH7-B13/GpL16-k0, GpH7-B14/GpL16-k0, and GpH7-B15/GpL16-k0. The prepared antibodies were used to assess the binding activity to each FcγR by the method described in Reference Example 2.
(§1) Analysis of interaction between objective antibody and the FcγR was carried out using Biacore T100 (GE Healthcare). HBS-EP+ (GE Healthcare) was used as the running buffer, and the measurement temperature was set to 25° C. Chips produced by immobilizing the antigen peptide by the amine coupling method to a Series S Sencor Chip CM5 (GE Healthcare), or alternatively, chips produced by allowing preliminarily biotinylated antigen peptides to interact with and immobilize onto a Series S Sensor Chip SA (certified) (GE Healthcare) were used. Antibodies of interest were captured onto an antigen peptide-immobilized chip, and allowed to interact to each FcγR diluted with running buffer. To regenerate and repeatedly use the chip, the antibodies captured on the chip were washed off by reacting 10 mM glycine-HCl, pH 1.5.

Test [1] concerns the target T2, FcγRIIIa extracellular domain with C-terminal His tag (human, UniProt P08637 17-208).
T2 construct: extracellular domain; also called FcgRIIIa; 3a; not shown: His tag at the C terminus
The test can be described thus: SPR (Biacore), kinetic analysis, antibody captured, FcγRIIIa as analyte.
From the text: Then, the present inventors introduced I332E into only one H chain, and assessed whether the Tm is elevated as compared to when I332E is introduced into both H chains. Expression vectors inserted with GpH7-A44 (SEQ ID NO: 49) and GpH7-B80 (SEQ ID NO: 50) resulting from the introduction of I332E into GpH7-A5 and GpH7-B3, respectively, were constructed. They were combined with GpH7-B3, GpH7-A5, and GpL16-k0 to express and prepare the following antibodies according to the method described in Reference Example 1: the heterodimerized antibodies GpH7-A5/GpH7-B80/GpL16-k0 and GpH7-A44/GpH7-B3/GpL16-k0 in which only one of the H chains was introduced with I332E, and the homodimerized antibody GpH7-A44/GpH7-B80/GpL16-k0 in which both of the H chains were introduced with I332E. GpH7-A5/GpH7-B3/GpL16-k0 was prepared as a control. Each antibody was assessed for the FcγRIIIa-binding activity according to the method described in Reference Example 2. In addition, the antibodies were compared for the Tm of CH2 domain by thermal shift assay according to the method described in Reference Example 5 (Tables 28 and 29).
as §1
The FcγR-binding activity of each antibody was assessed primarily using as an indicator the FcγR-binding activity and dissociation constant for FcγR.
On the technique in general: In SPR one partner is held on a chip, and binding of the other changes the refractive index at the surface.

T2 sequence (P08637 17-208): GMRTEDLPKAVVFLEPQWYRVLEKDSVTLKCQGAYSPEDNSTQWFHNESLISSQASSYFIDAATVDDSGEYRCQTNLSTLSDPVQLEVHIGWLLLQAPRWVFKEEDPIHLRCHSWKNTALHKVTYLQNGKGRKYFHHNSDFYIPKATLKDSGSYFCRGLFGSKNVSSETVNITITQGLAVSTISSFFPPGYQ

B1: GpH7-A42/GpL16-k0 (antibody, human IgG1, kappa)
heavy: QVQLVQSGAEVKKPGASVTVSCKASGYTFTDYEMHWIRQPPGEGLEWIGAIDPKTGDTAYSESFQDRVTLTADKSTSTAYMELSSLTSEDTAVYYCTRFYSYTYWGQGTLVTVSSASTKGPSVFPLAPSSKSTSGGTAALGCLVKDYFPEPVTVSWNSGALTSGVHTFPAVLQSSGLYSLSSVVTVPSSSLGTQTYICNVNHKPSNTKVDKKVEPKSCDKTHTCPPCPAPELLGGPSVFLFPPKPKDTLMISRTPEVTCVVVDVSHEDPEVKFNWYVDGVEVHNAKTKPREEQYNSTYRVVSVLTVLHQDWLNGKEYKCKVSNKAEPAPIEKTISKAKGQPREPQVYTLPPSRKELTKNQVSLTCLVKGFYPSDIAVEWESNGQPENNYKTTPPVLDSDGSFFLYSKLTVDKSRWQQGNVFSCSVMHEALHNRYTQKSLSLSP
light: DIVMTQSPLSLPVTPGEPASISCQASESLVHSNRNTYLHWYLQKPGQSPQLLIYKVSNRFSGVPDRFSGSGSGTDFTLKISRVEAEDVGVYYCSQNTHVPPTFGQGTKVEIERTVAAPSVFIFPPSDEQLKSGTASVVCLLNNFYPREAKVQWKVDNALQSGNSQESVTEQDSKDSTYSLSSTLTLSKADYEKHKVYACEVTHQGLSSPVTKSFNRGEC
notes: L328E in both H chains
Regarding B1, in the test with FcγRIIb, the binding result is reported as “binds”.

B2: GpH7-A5/GpH7-B3/GpL16-k0 (antibody, human IgG1, kappa)
heavy 1: not shown
heavy 2: not shown
light: DIVMTQSPLSLPVTPGEPASISCQASESLVHSNRNTYLHWYLQKPGQSPQLLIYKVSNRFSGVPDRFSGSGSGTDFTLKISRVEAEDVGVYYCSQNTHVPPTFGQGTKVEIERTVAAPSVFIFPPSDEQLKSGTASVVCLLNNFYPREAKVQWKVDNALQSGNSQESVTEQDSKDSTYSLSSTLTLSKADYEKHKVYACEVTHQGLSSPVTKSFNRGEC
notes: also called HeCon Ab; control heterodimerized antibody
For B2, in test [1], the KD ratio is 1 fold (KD of GpH7-A5/GpH7-B3/GpL16-k0 divided by KD of the antibody) and the Kd stood at 1600 nM.

B3: GpH7-A5/GpH7-B80/GpL16-k0 (antibody, human IgG1, kappa)
heavy 1: not shown
heavy 2: not shown
light: DIVMTQSPLSLPVTPGEPASISCQASESLVHSNRNTYLHWYLQKPGQSPQLLIYKVSNRFSGVPDRFSGSGSGTDFTLKISRVEAEDVGVYYCSQNTHVPPTFGQGTKVEIERTVAAPSVFIFPPSDEQLKSGTASVVCLLNNFYPREAKVQWKVDNALQSGNSQESVTEQDSKDSTYSLSSTLTLSKADYEKHKVYACEVTHQGLSSPVTKSFNRGEC
notes: Heterodimerized anti-glypican-3 IgG1
With B3, in test [1], the KD ratio was 3.4 fold (KD of GpH7-A5/GpH7-B3/GpL16-k0 divided by KD of the antibody) and the affinity, expressed as Kd, was 470 nM.

B4: GpH7-A44/GpH7-B3/GpL16-k0 (antibody, human IgG1, kappa)
heavy 1: QVQLVQSGAEVKKPGASVTVSCKASGYTFTDYEMHWIRQPPGEGLEWIGAIDPKTGDTAYSESFQDRVTLTADKSTSTAYMELSSLTSEDTAVYYCTRFYSYTYWGQGTLVTVSSASTKGPSVFPLAPSSKSTSGGTAALGCLVKDYFPEPVTVSWNSGALTSGVHTFPAVLQSSGLYSLSSVVTVPSSSLGTQTYICNVNHKPSNTKVDKKVEPKSCDKTHTCPPCPAPELLGGPSVFLFPPKPKDTLMISRTPEVTCVVVDVSHEDPEVKFNWYVDGVEVHNAKTKPREEQYNSTYRVVSVLTVLHQDWLNGKEYKCKVSNKALPAPEEKTISKAKGQPREPQVYTLPPSRKELTKNQVSLTCLVKGFYPSDIAVEWESNGQPENNYKTTPPVLDSDGSFFLYSKLTVDKSRWQQGNVFSCSVMHEALHNRYTQKSLSLSP
heavy 2: not shown
light: DIVMTQSPLSLPVTPGEPASISCQASESLVHSNRNTYLHWYLQKPGQSPQLLIYKVSNRFSGVPDRFSGSGSGTDFTLKISRVEAEDVGVYYCSQNTHVPPTFGQGTKVEIERTVAAPSVFIFPPSDEQLKSGTASVVCLLNNFYPREAKVQWKVDNALQSGNSQESVTEQDSKDSTYSLSSTLTLSKADYEKHKVYACEVTHQGLSSPVTKSFNRGEC
notes: Heterodimerized anti-glypican-3 IgG1; I332E only in the GpH7-A5-derived chain (A44)
B4: in test [1], the KD ratio was 4.4 fold (KD of GpH7-A5/GpH7-B3/GpL16-k0 divided by KD of the antibody) and the Kd amounted to 370 nM.

B5: GpH7-A44/GpH7-B80/GpL16-k0 (antibody, human IgG1, kappa)
heavy 1: QVQLVQSGAEVKKPGASVTVSCKASGYTFTDYEMHWIRQPPGEGLEWIGAIDPKTGDTAYSESFQDRVTLTADKSTSTAYMELSSLTSEDTAVYYCTRFYSYTYWGQGTLVTVSSASTKGPSVFPLAPSSKSTSGGTAALGCLVKDYFPEPVTVSWNSGALTSGVHTFPAVLQSSGLYSLSSVVTVPSSSLGTQTYICNVNHKPSNTKVDKKVEPKSCDKTHTCPPCPAPELLGGPSVFLFPPKPKDTLMISRTPEVTCVVVDVSHEDPEVKFNWYVDGVEVHNAKTKPREEQYNSTYRVVSVLTVLHQDWLNGKEYKCKVSNKALPAPEEKTISKAKGQPREPQVYTLPPSRKELTKNQVSLTCLVKGFYPSDIAVEWESNGQPENNYKTTPPVLDSDGSFFLYSKLTVDKSRWQQGNVFSCSVMHEALHNRYTQKSLSLSP
heavy 2: not shown
light: DIVMTQSPLSLPVTPGEPASISCQASESLVHSNRNTYLHWYLQKPGQSPQLLIYKVSNRFSGVPDRFSGSGSGTDFTLKISRVEAEDVGVYYCSQNTHVPPTFGQGTKVEIERTVAAPSVFIFPPSDEQLKSGTASVVCLLNNFYPREAKVQWKVDNALQSGNSQESVTEQDSKDSTYSLSSTLTLSKADYEKHKVYACEVTHQGLSSPVTKSFNRGEC
notes: Anti-glypican-3 IgG1 with I332E in both H chains
As to B5, in test [1], the KD ratio was 7.1 fold (KD of GpH7-A5/GpH7-B3/GpL16-k0 divided by KD of the antibody) and binding was characterised by a dissociation constant (Kd) of 230 nM.

B6: GpH7-A43/GpL16-k0 (antibody, human IgG1, kappa)
heavy: QVQLVQSGAEVKKPGASVTVSCKASGYTFTDYEMHWIRQPPGEGLEWIGAIDPKTGDTAYSESFQDRVTLTADKSTSTAYMELSSLTSEDTAVYYCTRFYSYTYWGQGTLVTVSSASTKGPSVFPLAPSSKSTSGGTAALGCLVKDYFPEPVTVSWNSGALTSGVHTFPAVLQSSGLYSLSSVVTVPSSSLGTQTYICNVNHKPSNTKVDKKVEPKSCDKTHTCPPCPAPELLGGPSVFLFPPKPKDTLMISRTPEVTCVVVDVSHEDPEVKFNWYVDGVEVHNAKTKPREEQYNSTYRVVSVLTVLHQDWLNGKEYKCKVSNKADPAPIEKTISKAKGQPREPQVYTLPPSRKELTKNQVSLTCLVKGFYPSDIAVEWESNGQPENNYKTTPPVLDSDGSFFLYSKLTVDKSRWQQGNVFSCSVMHEALHNRYTQKSLSLSP
light: DIVMTQSPLSLPVTPGEPASISCQASESLVHSNRNTYLHWYLQKPGQSPQLLIYKVSNRFSGVPDRFSGSGSGTDFTLKISRVEAEDVGVYYCSQNTHVPPTFGQGTKVEIERTVAAPSVFIFPPSDEQLKSGTASVVCLLNNFYPREAKVQWKVDNALQSGNSQESVTEQDSKDSTYSLSSTLTLSKADYEKHKVYACEVTHQGLSSPVTKSFNRGEC
notes: L328D in both H chains
Take B6: the binding result with FcγRIIb is on record as “binds”.

One may read the Kd as the concentration at which binding is half-saturated. A higher Kd goes with a looser complex.
